{
  "source": "the nanobody polyreactivity screen of Harvey et al. (2022)",
  "data": [
    {"experiment": "yeast display, Sf9 membrane polyspecificity reagent, FACS + sequencing; frameworks hold sequencing errors", "how_it_was_run": "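Galactose induction of a Saccharomyces cerevisiae BJ5465 synthetic nanobody display library ran 36–48 hours. The cells were then stained for 1 hour at 4 °C with 10% biotinylated, detergent-solubilized Sf9 membrane reagent, pulled down on streptavidin microbeads and FACS-sorted into low and high (top ~1%) gates on expression and reagent-binding fluorescence. Labels for polyreactivity follow the gate of origin.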", "values": [
      {"sequence": "QVQLVESGGGLVHAGGPLRLSCAPSGFIFRGYAMGWYRQAPGKEREFVAAISGSGGSTYYADSVKGRFTISRDNAKNTVFLQMNSLKTDDTAVYYCNARFWGVWGGYDYWGQGTQVTVSS", "polyreactivity (PSR sort gate)": "high polyreactivity"},
      {"sequence": "QVQLVESGGGLVQAGGSLRLSCAASGSTFYGYAMGWYRQAPGKERELVAGITSAGSTYYADSVKGRFTISRDNAKNTVYLQMNSLKPEDTAVYYCAYHGAGYYYWGQGTQVTVSS", "polyreactivity (PSR sort gate)": "high polyreactivity"},
      {"sequence": "QVQLVESGGGLVQAGGSLRLSCAASGSIFYRYAMGWYRQAPGKERELVAAISRSGASTYYADSVKGRFTISRDNAKNTVYLQMNSLKPEDTAVYYCNALFSKFTNRYDYWGQGTQVTVSS", "polyreactivity (PSR sort gate)": "high polyreactivity"},
      {"sequence": "QVQLVESGGGLVQAGGSLRLSCAASGFTFSGYAMGWYRQAPGKERELVAVIRGRGGRTYYADSVKGRFTISRDNAKNTVYLQMNSLKPEDTAVYYCAARRDAYYYVPNRFDYWGQGTQVTVSS", "polyreactivity (PSR sort gate)": "high polyreactivity"},
      {"sequence": "QVQLVESGGGLVQAGGSLRLSCAASGSIFGRYGAMGWYRQAPGKERELVAAIRTSGVSTYYADSVKGRFTISRDNAKKNVYLQMNSLKPEDTAVYYCAKGYTSYNLGKYGYWGQGTQVTVSS", "polyreactivity (PSR sort gate)": "high polyreactivity"},
      {"sequence": "QVQLVESGGGLVQAGGSLRLSCAASGSTFAINARGWYRQAPGKERELVAAISSSGSTNYADSVKGRFTISRDNAKITVYLQMNSLKPEDTAVYYCAATGYRVYGFEFGYWGQGTQVTVSS", "polyreactivity (PSR sort gate)": "low polyreactivity"},
      {"sequence": "QVQLVESGGGLVQAGGSLRLSCAASGYTFTIYSMGWYRQAPGKERELVAAISWNGGRTYYADSVKGRFTISRDNAKNTVYLKMNSLKPEDTAVYDCNADNFSAGDYWGQGTQVTVSS", "polyreactivity (PSR sort gate)": "high polyreactivity"},
      {"sequence": "QVQLVESGGGLVQAGGSLRLSCAASGRTFAYNAMGWYRQAPGKERELVAAISRRGGSTFYADSVKGRFTISRDNAKNTVYLQMNSLKPEDTAVYYCARDSYYIGRWLYYWGQGTQVTVSS", "polyreactivity (PSR sort gate)": "high polyreactivity"},
      {"sequence": "QVQLVESGGGLVQAGGSLRLSCAASGFTFRDNTMGWYRQAPGKERELVASISWSGGSTYYADSVKGRFTFSRDYAKNTVYLQMNSVKPEDTAVYYCAADDGSQYYFVSPHEYDYWGQGTQVTVSS", "polyreactivity (PSR sort gate)": "low polyreactivity"},
      {"sequence": "QVQLVESGGGLVQAGGSLRLSCAASGITFDDYAMGWYRQAPGKERELVAAISESGDSTYYADSVKGRFTISRDNAKNTVYFQMNSLKPEDTAVYYCAADSTYYYGWGMYYWGQGTQVTVSS", "polyreactivity (PSR sort gate)": "high polyreactivity"},
      {"sequence": "QVQLVESGGGLVQAGGSLRLSCAASGRTFTPNAMGGYRQAPGKERELVAAIDWRGGRTYYADSVKGRFTISRDNAKNTVYLQMNSLKPEDSAVYYCAARVDGYHYKSAGYSYGVYYWGQGTQVTVSS", "polyreactivity (PSR sort gate)": "low polyreactivity"},
      {"sequence": "QVQLVESGGGLVQAGGSLRLSSAASGGIFSRYGMGSYRQAPGKERELVAAITWSGGRTYYADSVKGRFTISRDNAKNTVYLQMNSLKPEETAVYYCAALETSFSSVGYEYWGQGTQVTVSS", "polyreactivity (PSR sort gate)": "high polyreactivity"},
      {"sequence": "QVQLVESGGGLVQAGGSLRLSCAASGRIFPDYDMGWYRQAPGKERELVAAITQRGGSTYADSVKGRFTISRDNAKNTVYLQMNSLKPEDTAVYYCAREYYEGYEYWGQGTQVTVSS", "polyreactivity (PSR sort gate)": "low polyreactivity"},
      {"sequence": "QVQLVESGGGLVQAGGSHRLSCAASGGTFDDYALGWYRQAPGKERELVAAISSSGGSTYYADSVKGRFTISRDNAKNTVYLQMNSLKPEDTAVYYCAVDAYWRLWYYPYESHHDYWGQGTQVTVSS", "polyreactivity (PSR sort gate)": "low polyreactivity"},
      {"sequence": "QVQLVESGGGLVKAGGSLRLSCAASGRIFYGYAMGWYRQAPGKERELVAAITRSGTSTYYADSVKGRFTISRDNAKNTVYLQMHSLKPEDTAVYYCAAVERSLRSPYGDYGYWGHGTQVTVSS", "polyreactivity (PSR sort gate)": "high polyreactivity"},
      {"sequence": "QVQLVESGGGLVQAGGSLRLSCAASGSTFSRYAMGWSRQAPGKERELVAAISWSGGSTYYAVSVKGRFTISRDNAKNTVYLQMISLKPEDTAVYYCAAYTYSFRANHDYWGQGTQVTVSS", "polyreactivity (PSR sort gate)": "high polyreactivity"},
      {"sequence": "QVQLVESGGGLVQAGGSLRLSCAASGRTFRYNAMGWYRQAPGKERELVAAISRGANTNYADSVKGRFTISRDNAKNTVYLQMNSLKPEDTAVYYCAAVPGYRFYYWGQGTQVTVSS", "polyreactivity (PSR sort gate)": "high polyreactivity"},
      {"sequence": "QVQLVESGGGLVQAGGSLRLSCAASGGIFSYYTMGWYRQAPGKERELVARITTGGSTNYADSVKGRFTISRDNAKNTVYLQMNSLKPEDTAVYYCAATGPKYWLTWSSYTRYDYWGQGTQVTVSS", "polyreactivity (PSR sort gate)": "high polyreactivity"},
      {"sequence": "QVQLVESGGGLVQAGGSLRLSCAASGFICAQNAMGWYRQAPGKERELVADISGRGGRTYYADSVKGRFTISRDNAKNTVYLQMNSLKPEDTAVYYCAKDTYLQIYQYGYWGQGTQVTVSS", "polyreactivity (PSR sort gate)": "high polyreactivity"},
      {"sequence": "QLQLVESGGGLVQAGGSLRLSCAASGFTFGVYAMGWYRQAPGKERELVAAISTTVGSTYYADSVKGRYTISRDNAKNTVYLQMNSLKPEDTAVYYCAAEYTGYISYYIYEDWGQGTQVTVSS", "polyreactivity (PSR sort gate)": "low polyreactivity"},
      {"sequence": "QVQLVESGGVLVQAGGSLRLSCAASGNIFDQNAMGWYRQAPGKERELVAAITRSGSTTYYADSVKGRFTISRDNAKNTVYLQMNSLNPEDTAVYYCAAKVYAYRTYKMYYWGQGTQVTVSS", "polyreactivity (PSR sort gate)": "high polyreactivity"},
      {"sequence": "QVQLVESGGGLVQAGGSLRLSCAASGFTFHRNAMGWYRQAPGKERELVAAISTRGGSTAYADSVKGRFTISRDTAKNNVYLQMNSLKPEDTAVYYCNTRYVGQRSTWVDQVRRYDYWGQGTQVTVSS", "polyreactivity (PSR sort gate)": "high polyreactivity"},
      {"sequence": "QVQLVESGGGLVQAGGSLRLSCAASGRTFGYYAMGWYRQATGKERELVAAISWSDSGTYYADSVKGRFTISRDNAKNTVYLQMNSLKPEDTAVYYCAKDEPYFVFRDTYDYWGQGTQVTVSS", "polyreactivity (PSR sort gate)": "high polyreactivity"},
      {"sequence": "QVQLVESGGGLVHAGGSLRLSFAASGRTFTLNAMGWYRQAPGKEREFVAAISNSGVRTYYADSVKGRFTISRDNAKNTVYLQMNSLTPEDTAVYYCDGTYQVGDSIDDYWGQGTQVTVSS", "polyreactivity (PSR sort gate)": "low polyreactivity"},
      {"sequence": "QVQLVESGGGLVQAGGSLRLSCAASGSTFNPYAMAWYRQAPGKEREFVAAISWRGGSTYYADSVKGRFTISRDNAKNTVYLQMNSLKPEDTAVYYCAARRLYSHTTSGRGYWGQGTQVTVSS", "polyreactivity (PSR sort gate)": "high polyreactivity"},
      {"sequence": "QVQLVESGAGLVQAGGSLRLSCAASGRIFDIYAMGWYRQAPGKERELVAAITRRGGTTYADSVKGRFTISRDNAKNTVYLQMNSLKPEDTAVYYCARYHWYYRVSKSDSWGQGTQVTVSS", "polyreactivity (PSR sort gate)": "high polyreactivity"},
      {"sequence": "QVQLVESGGGIVQAGGSLRLISAASGFIFAIYAMGWYRQAPGNERELVAGISSSGSTTRYADSVKVRFTISRDYAKYTVYLQLISLIPEDTAVYDCAADGYPGDDYWGQGTQVTVSS", "polyreactivity (PSR sort gate)": "high polyreactivity"},
      {"sequence": "QVQLVESGGGLVQAGGSLRLSCAASGSIFGENAMGWDRQAPGKERELVAAITSGGSTDYADSVKGRFTISRDNAKNTVYLQMNSLKPEDTAVYYCAASGRVGPGYWYDSWGQGTQVTVSS", "polyreactivity (PSR sort gate)": "low polyreactivity"},
      {"sequence": "QVQLVESGGGLVQAGGSLRLSCAASGFTFNDNDMGWYRQAPGKEWELVAAITYGGSTYYADSVKGRFTISRENAKNTVYLQMNSLKPEDTAVYYCNVEFFFWPYEYGYWGQGTQVNVSS", "polyreactivity (PSR sort gate)": "low polyreactivity"},
      {"sequence": "QVQLVESGGGLVQAGGSLRLSCAASGFTLLVNAMGWYRQAPGKERELVAAITSGGRTNYADSVKGRFTISRDNAKNTVYLQMNSLKPEDTAVYYCARDWGRKPDDGQQAWYEYWGQGTQVTVSS", "polyreactivity (PSR sort gate)": "low polyreactivity"},
      {"sequence": "QVQLVESGGGLVQAGGSLRLSCAASGFTFDTYTMGWYRQAPGKERELVAAISSGGNTNYADSVKGRFTISRDNAKNTVYLQMNSLKPEDTAVYYCARGATLLQYSYWGVYEYDSWGQGTQVTVSS", "polyreactivity (PSR sort gate)": "low polyreactivity"},
      {"sequence": "QVQLVESGGGLVQAGGSLRLSCPASGYILHKYAMGSYRQAPGKERELVATISGGGGSTYYADSVKGRFTISRDNAKNTVYLQMNSLKPEDTAVYYCAIEYPWLPRSYEYGGQGTQVTVSS", "polyreactivity (PSR sort gate)": "low polyreactivity"},
      {"sequence": "QVQLVESGGGLVQAGGSLRLSCAASGITFYDYAMGWYRQAPGKERELVAAISFSGSRTYYADSVKGRFTISRDNAKNTVYLQMNSLKPEDTAVYYCAASPSTPNKYGSWGQGTQVTVSS", "polyreactivity (PSR sort gate)": "high polyreactivity"},
      {"sequence": "QVQLVESGGGLVQAGGSLRLSCAASGSIFSSYAMGWYRQAPGKERELVASISRRGGSTYYADSVKGRFTISRDKAKNTVYLQMNSLKPEDTAVYYCTASGGPYRYYYWGQGTQVTVSS", "polyreactivity (PSR sort gate)": "low polyreactivity"},
      {"sequence": "QVQLVESGGGLVQAGGSLRLTCAASGITFYGNAMGWYRQAPGKERELVANTYYADSVKGRFTISRDNAKNTVYLQMNSLIAEDTAVYYCATRNARYRSQPPGYDYWGQGTQVTVSS", "polyreactivity (PSR sort gate)": "low polyreactivity"},
      {"sequence": "QDQLVESGGGLVQAGGSLRLSCAASGRTFSRYALGWYRQAPGKERELVAAISWSGGTTHYADSVKGRFTISRDNAKNTVYLLMNRLKPEDTAFYYCNKLRQIEFWGQGTQVTVSS", "polyreactivity (PSR sort gate)": "high polyreactivity"},
      {"sequence": "QVQLVESGGGLVQAGGSLRLSCAASGSTSVTNAMGWYRQAPGKEREFVATINYSGTSTYYADSVKGRFTISRDNAKNTVYLLMNSLKPEDTAVYYCNKTFVRGVHGVYLPITSYDYWAQGTQVTVSS", "polyreactivity (PSR sort gate)": "low polyreactivity"},
      {"sequence": "QVQLVESGGGLVQAGGSLRLSCAASGFIFWYNAMGWYRQAPGKERELVADNTSGGSTTYADSVKGRFTISRDNAKNTVYLQMNSLKPEDTAVYYCAASIRRYWLHPGDYWGQGTQVTVSS", "polyreactivity (PSR sort gate)": "low polyreactivity"},
      {"sequence": "QVQLVESGGGLVQAGGSLRLSCAASGSIFLWNAMGWYRQAPGKERELVAAITWRGGSTYYADSVKGRFTISRDNAKNTVYLQMNSLKPEDTAVYYCAADSYDWMDYWGQGTQVTVSS", "polyreactivity (PSR sort gate)": "low polyreactivity"},
      {"sequence": "QVQLVESGGGLVQAGGSLRLSCAASGGIFGYYVMGRYRQAPGKERELVAVITRGGSTNYADSVKGRFTISRDNAKNTVYLQMNSLKPEDTAVYYCAKDVPYRRVRSEYWGQGTQVTVSS", "polyreactivity (PSR sort gate)": "low polyreactivity"},
      {"sequence": "QVQLVESGGGLVQAGGSLRLSCAASGSTFVGYAMGWYRQAPGKERELVADIDSIGGSTYYADSVKGRFTISRDNAKNTVYLQMNSLKPEDTAVYYCAAYQHPGLRTSYEYWGQGTQVTVSS", "polyreactivity (PSR sort gate)": "low polyreactivity"}
    ]}
  ]
}
